Source: US20200069736A1 (WHITEHEAD INSTITUTE FOR BIOMEDICAL RESEARCH, published 2020)

Target: T1, murine Class II MHC molecules on wild-type C57BL/6 mouse B cells (mouse, UniProt P14434 24-256; P14483 28-265)
T1 construct: whole, on cells; Endogenous MHC class II on B cells immobilised on streptavidin beads through biotinylated anti-CD19; also called mouse MHC class II
T1 sequence (MHC II alpha, looked up): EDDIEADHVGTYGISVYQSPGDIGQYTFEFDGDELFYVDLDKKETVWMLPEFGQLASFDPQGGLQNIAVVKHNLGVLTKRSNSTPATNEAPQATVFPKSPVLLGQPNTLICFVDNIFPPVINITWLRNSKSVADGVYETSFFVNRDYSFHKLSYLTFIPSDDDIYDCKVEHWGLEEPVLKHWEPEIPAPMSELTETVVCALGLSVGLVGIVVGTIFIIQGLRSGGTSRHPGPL
T1 sequence (MHC II beta, looked up): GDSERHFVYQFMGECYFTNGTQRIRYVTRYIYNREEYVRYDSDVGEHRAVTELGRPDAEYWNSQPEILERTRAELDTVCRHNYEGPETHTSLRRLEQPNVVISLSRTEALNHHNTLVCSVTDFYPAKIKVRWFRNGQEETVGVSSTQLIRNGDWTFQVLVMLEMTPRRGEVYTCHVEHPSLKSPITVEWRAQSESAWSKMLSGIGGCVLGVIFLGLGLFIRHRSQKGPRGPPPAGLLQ
Assay: B cell-red blood cell binding assay: B cells on magnetic beads, bound red cells detected by anti-hemoglobin immunoblot
Description: FIG. 25 is a diagram showing conjugation of single domain antibody to engineered red blood cells and cell type-specific targeting. (A) Mouse mature red blood engineered to contain 3G-myc-GPA on the cell surface were incubated with. Sortase with or without VHH7-LPETG (SEQ ID NO: 44): a single domain antibody with binding specificity for mouse MHC class II molecules and sortase motif complementary to 3G. […] (B) Either wild type mouse B cells (expressing MHC class II) or B cells derived from MHC class II knock-out mice were immobilized on magnetic streptavidin beads via biotinylated α-CD19 antibody, incubated with 3G-myc-GPA red blood cells or red cells that contained sortase-labeled VHH7-LPETG (SEQ ID NO: 44)-myc GPA on their surface, and washed. Immobilization of B cells in all experimental set-ups was tested by presence of CD19 in α-CD19 immunoblot and binding between B cells and red blood cells was evaluated by the presence of hemoglobin in the α-hemoglobin immunoblot. (C) Schematic for experiment shown in (B); LPETG: (SEQ ID NO: 44).
A B cell—red blood cell binding assay was performed as follows. B cells were isolated from either wild-type C57BL/6 mice or mice knock-out for MI-IC class II using Dynabeads Mouse CD43 (Untouched B cells) (Life Technologies) according to manufacturer's recommendations. […]

B1: 3G-myc-hGPA on the surface of mouse red blood cells, not labeled with VHH7 (other, human, not shown: small tags and cut ends)
chain (part 1 of 2): GGG
chain (part 2 of 2): LSTTEVAMHTSTSSSVTKSYISSQTNDTHKRDTYAATPRAHEVSEISVRTVYPPEEETGERVQLAHHFSEPEITLIIFGVMAGVIGTILLISYGIRRLIKKSPSDVKPLPSPDTDVPLSSVEIENPETSDQ
notes: mature; also called 3G-myc-GPA red blood cells; unmodified red cells
B1: no binding.
